Measurements published in PMC4515812.

B1: Sp1 site -336/-315 probe (Sp1_EMSA3) (dsDNA)
DNA 1: GGGGGCCTCGCCCCTTTGGGGC
DNA 2: GCCCCAAAGGGGCGAGGCCCCC
B2: Sp1 consensus probe (Sp1_EMSA1) (dsDNA)
DNA 1: ATTCGATCGGGGCGGGGCGAGC
DNA 2: GCTCGCCCCGCCCCGATCGAAT
B3: Sp1 site -403/-382 probe (Sp1_EMSA2) (dsDNA)
DNA 1: CGGGGCCCCGCCCGGGCCAGCC
DNA 2: GGCTGGCCCGGGCGGGGCCCCG

Molecular target: Sp1 (recombinant, Sigma-Aldrich SRP2030) (UniProt P08047 1-785)
Experiment: EMSA

Chain of Sp1 (recombinant, Sigma-Aldrich SRP2030) (P08047 whole entry): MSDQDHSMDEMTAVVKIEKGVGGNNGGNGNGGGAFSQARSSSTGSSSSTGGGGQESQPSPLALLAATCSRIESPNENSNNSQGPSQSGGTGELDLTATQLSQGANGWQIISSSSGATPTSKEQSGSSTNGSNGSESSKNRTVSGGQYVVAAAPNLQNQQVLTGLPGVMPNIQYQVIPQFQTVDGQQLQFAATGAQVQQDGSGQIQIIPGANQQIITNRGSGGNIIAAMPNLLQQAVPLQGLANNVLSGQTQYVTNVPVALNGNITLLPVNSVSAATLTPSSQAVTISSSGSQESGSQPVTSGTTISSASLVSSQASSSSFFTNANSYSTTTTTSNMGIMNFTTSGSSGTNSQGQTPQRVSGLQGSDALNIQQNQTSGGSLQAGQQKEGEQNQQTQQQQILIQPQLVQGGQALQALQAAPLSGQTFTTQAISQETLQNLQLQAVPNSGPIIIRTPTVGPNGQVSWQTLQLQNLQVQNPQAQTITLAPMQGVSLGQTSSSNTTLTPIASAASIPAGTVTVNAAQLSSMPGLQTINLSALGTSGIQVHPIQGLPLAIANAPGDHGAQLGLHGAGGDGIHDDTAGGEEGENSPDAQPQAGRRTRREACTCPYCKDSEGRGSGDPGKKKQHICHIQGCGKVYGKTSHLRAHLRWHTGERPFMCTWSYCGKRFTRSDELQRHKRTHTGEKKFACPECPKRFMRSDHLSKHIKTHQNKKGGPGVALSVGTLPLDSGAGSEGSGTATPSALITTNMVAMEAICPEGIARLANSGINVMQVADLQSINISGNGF

Binding result, binds:
B1
B2
B3
